Measurements as given in patent US20060257938A1, “Method of screening for drugs that block ligand binding to a lipid binding protein” (priority 2005, published 2006).
Several values for one entry are separate records, joined by “and”; a condition that tells them apart may be missing. Equal values may be shown once.

B1: 119S, 72A (protein, listed as Rattus norvegicus)
chain: AFDGTWKVDRNENYEKFMEKMGINVVKRKLGAHDNLKLTITQEGNKFTVKESSNFRNIDVVFELGVDFAYSAADGTELTGTWTMEGNKLVGKFKRVDNGKELIAVREISGNELIQTYTSEGVEAKRIFKKE
modifications: PEPTIDE (1)...(131) wild-type rat intestinal fatty acid binding protein
B2: 126D, 72A (protein, listed as Rattus norvegicus)
chain: AFDGTWKVDRNENYEKFMEKMGINVVKRKLGAHDNLKLTITQEGNKFTVKESSNFRNIDVVFELGVDFAYSAADGTELTGTWTMEGNKLVGKFKRVDNGKELIAVREISGNELIQTYTYEGVEAKDIFKKE
modifications: PEPTIDE (1)...(131) wild-type rat intestinal fatty acid binding protein
B3: 126E, 72A (protein, listed as Rattus norvegicus)
chain: AFDGTWKVDRNENYEKFMEKMGINVVKRKLGAHDNLKLTITQEGNKFTVKESSNFRNIDVVFELGVDFAYSAADGTELTGTWTMEGNKLVGKFKRVDNGKELIAVREISGNELIQTYTYEGVEAKEIFKKE
modifications: PEPTIDE (1)...(131) wild-type rat intestinal fatty acid binding protein
B4: 102F, 72A (protein, listed as Rattus norvegicus)
chain: AFDGTWKVDRNENYEKFMEKMGINVVKRKLGAHDNLKLTITQEGNKFTVKESSNFRNIDVVFELGVDFAYSAADGTELTGTWTMEGNKLVGKFKRVDNGKEFIAVREISGNELIQTYTYEGVEAKRIFKKE
modifications: PEPTIDE (1)...(131) wild-type rat intestinal fatty acid binding protein
B5: 126A, 72A (protein, listed as Rattus norvegicus)
chain: AFDGTWKVDRNENYEKFMEKMGINVVKRKLGAHDNLKLTITQEGNKFTVKESSNFRNIDVVFELGVDFAYSAADGTELTGTWTMEGNKLVGKFKRVDNGKELIAVREISGNELIQTYTYEGVEAKAIFKKE
modifications: PEPTIDE (1)...(131) wild-type rat intestinal fatty acid binding protein
B6: 11Y1, L72A (protein, listed as Rattus norvegicus)
chain: AFDGTWKVDRYENYEKFMEKMGINVVKRKLGAHDNLKLTITQEGNKFTVKESSNFRNIDVVFELGVDFAYSAADGTELTGTWTMEGNKLVGKFKRVDNGKELIAVREISGNELIQTYTYEGVEAKRIFKKE
modifications: PEPTIDE (1)...(131) wild-type rat intestinal fatty acid binding protein
B7: 11C, 72A (protein, listed as Rattus norvegicus)
chain: AFDGTWKVDRCENYEKFMEKMGINVVKRKLGAHDNLKLTITQEGNKFTVKESSNFRNIDVVFELGVDFAYSAADGTELTGTWTMEGNKLVGKFKRVDNGKELIAVREISGNELIQTYTYEGVEAKRIFKKE
modifications: PEPTIDE (1)...(131) wild-type rat intestinal fatty acid binding protein
B8: 102H, 72A (protein, listed as Rattus norvegicus)
chain: AFDGTWKVDRNENYEKFMEKMGINVVKRKLGAHDNLKLTITQEGNKFTVKESSNFRNIDVVFELGVDFAYSAADGTELTGTWTMEGNKLVGKFKRVDNGKEHIAVREISGNELIQTYTYEGVEAKRIFKKE
modifications: PEPTIDE (1)...(131) wild-type rat intestinal fatty acid binding protein
B9: 11Y1, 72A (protein, listed as Rattus norvegicus)
chain: AFDGTWKVDRYENYEKFMEKMGINVVKRKLGAHDNLKLTITQEGNKFTVKESSNFRNIDVVFELGVDFAYSAADGTELTGTWTMEGNKLVGKFKRVDNGKELIAVREISGNELIQTYTYEGVEAKRIFKKE
modifications: PEPTIDE (1)...(131) wild-type rat intestinal fatty acid binding protein
B10: 11G, 72A (protein, listed as Rattus norvegicus)
chain: AFDGTWKVDRGENYEKFMEKMGINVVKRKLGAHDNLKLTITQEGNKFTVKESSNFRNIDVVFELGVDFAYSAADGTELTGTWTMEGNKLVGKFKRVDNGKELIAVREISGNELIQTYTYEGVEAKRIFKKE
modifications: PEPTIDE (1)...(131) wild-type rat intestinal fatty acid binding protein
B11: 119V, 72A (protein, listed as Rattus norvegicus)
chain: AFDGTWKVDRNENYEKFMEKMGINVVKRKLGAHDNLKLTITQEGNKFTVKESSNFRNIDVVFELGVDFAYSAADGTELTGTWTMEGNKLVGKFKRVDNGKELIAVREISGNELIQTYTVEGVEAKRIFKKE
modifications: PEPTIDE (1)...(131) wild-type rat intestinal fatty acid binding protein
B12: 102G, 72A (protein, listed as Rattus norvegicus)
chain: AFDGTWKVDRNENYEKFMEKMGINVVKRKLGAHDNLKLTITQEGNKFTVKESSNFRNIDVVFELGVDFAYSAADGTELTGTWTMEGNKLVGKFKRVDNGKEGIAVREISGNELIQTYTYEGVEAKRIFKKE
modifications: PEPTIDE (1)...(131) wild-type rat intestinal fatty acid binding protein
B13: 119T, 72A (protein, listed as Rattus norvegicus)
chain: AFDGTWKVDRNENYEKFMEKMGINVVKRKLGAHDNLKLTITQEGNKFTVKESSNFRNIDVVFELGVDFAYSAADGTELTGTWTMEGNKLVGKFKRVDNGKELIAVREISGNELIQTYTTEGVEAKRIFKKE
modifications: PEPTIDE (1)...(131) wild-type rat intestinal fatty acid binding protein

Columns and labels:
Type in all cases: binding
[1] = Probe fluorescence ratio response to arachidonic acid relative to ADIFAB2; details: arachidonic acid; response relative to ADIFAB2
Excerpt: (§1) In an alternate preferred embodiment, the protein is rI-FABP that has Ala substituted for Leu at position 72 (rI-FABP-L72A) with the resulting probe named ADIFAB2. […] Other probes useful in embodiments of the invention are shown in Tables 1-6 and are also described in U.S. application Ser. No. 11/085,792, filed Mar. 21, 2005 which is incorporated herein by reference. The indicated substitutions are with reference to the ADIFAB protein of SEQ ID NO: 2.
(§2) ADIFAB2 also has an altered spectral response, making it especially useful for measurements of FFAu in blood samples (Apple et al, Clinical Proteomics, (2004) 1:41-44, U.S. patent application Ser. No. 10/670,958). The wavelengths at the maximum intensities emitted by these fluorescently-labeled I-FABP's in the absence of FFA is about 420 to 480 nm. The emission wavelengths at the maximum intensities emitted by these fluorescently-labeled I-FABP's with FFA bound are between about 495 to 580 nm. Experiments typically involve measuring the fluorescence response within both emission maxima or at wavelengths for which the effect of interfering molecules such as hemoglobin can be eliminated as described in U.S. application Ser. No. 10/670958 and PCT/US2004/030521 and the calculation of the ratio ‘R’ of the two fluorescence intensities. The baseline value for this ratio, measured in the absence of analyte, is designated R0.
(§3) The intensity ratio (“R” value) is determined as follows. The ratio is calculated using the following formula: R=Fλ1/Fλ2 wherein, Fλ1 is the measured fluorescence intensities (intensity of sample with probe present minus intensity of sample without probe present) at wavelength 1 and Fλ2 is the measured fluorescence intensities (intensity of sample with probe present minus intensity of sample without probe present) at wavelength 2. Then, for a given probe, ΔR, the difference in R value between the measurement in the presence of the test compound (agent) and in the absence of the test compound (agent), is calculated as follows: ΔR=R+agent−R0 In some embodiments, the ΔR value may then be compared to some reference, for example, an agent with a known affinity for a given probe, by ΔR/ΔRreference. Measurements of fluorescence intensities are obtained using standard techniques.

[2] = Probe fluorescence ratio response to linolenic acid relative to ADIFAB2; details: response relative to ADIFAB2
Excerpt: as §1, §2, §3

[3] = Probe fluorescence ratio response to linoleic acid relative to ADIFAB2; details: response relative to ADIFAB2
Excerpt: as §1, §2, §3

[4] = Probe fluorescence ratio response to oleic acid relative to ADIFAB2; details: response relative to ADIFAB2
Excerpt: as §1, §2, §3

[5] = Probe fluorescence ratio response to palmitic acid relative to ADIFAB2; details: response relative to ADIFAB2
Excerpt: as §1, §2, §3

Molecule	DR/DR AA [1]	DR/DR LNA [2]	DR/DR LA [3]	DR/DR OA [4]	DR/DR PA [5]
B1	0.78 and 0.781	0.73 and 0.734	0.46 and 0.457	0.71 and 0.714	0.37 and 0.373
B2	0.44	0.56	0.59	0.64	0.37
B3	0.25	0.32	0.34	0.30	0.21
B4	0.95 and 0.858	0.53 and 0.588	0.73 and 0.657	0.64 and 0.554	0.43 and 0.369
B5	1.27	1.36	1.32	1.38	1.22
B6	0.49	0.33	0.32	0.16	0.25
B7	0.52	0.64	0.70	0.70	0.80
B8	0.52	0.63	0.65	0.66	0.37
B9	0.52	0.31	0.33	0.16	0.30
B10	0.63	0.67	0.70	0.62	0.61
B11	0.99 and 0.750	1.00 and 0.710	1.01 and 0.720	1.02 and 0.780	0.57 and 0.480
B12	0.63	0.38	0.78	0.65	0.36
B13	1.22	1.21	1.22	1.26	0.79
